The values below come from patent US20210095032A1 (SALUBRIS CHENGDU BIOTECH, published 2021).

Substitutions are numbered along the chain they refer to. Read-outs that look alike come from different tables or passages of the source.

Assay [1] addresses T1, biotin-labeled human PD-1 Fc protein (human, biotin-labeled (site not stated)).
T1 construct: also called PD-1-Fc-biotin
Nature of the assay: capture ELISA, antibody captured on plate, biotin-labeled human PD-1 Fc in solution. Here is the method:
(§1) Plates were washed 4 times with wash buffer (PBS+0.05% Tween-20, PBST) and then blocked with 200 μl/well blocking buffer (5% w/v non-fatty milk in PBST) for 2 hours at 37° C. […] After a final wash, plates were incubated with 100 μl/well ELISA substrate TMB (Innoreagents). The reaction was stopped in 15 minutes at 25° C. with 50 μl/well 1M H₂SO₄, and the absorbance was read at 450 nm. Data were analyzed using Graphpad Prism software and EC₅₀ values were reported.

Assay [2] has as its target T1, biotin-labeled human PD-1 Fc protein. The assay is described as above. As to the method:
as §1
The source holds these as a separate data set.

The target is the same in assay [3]. Nature of the assay: competition ELISA, antibody + biotin human PD-1 Fc on coated Nivolumab (competitor Nivolumab). Here is the method:
(§2) The next day, plates were washed with wash buffer, and blocked with 5% non-fatty milk in PBST for 2 hours at 37° C. […] Plates were finally washed using wash buffer. TMB was added and the reaction was stopped using 1M H₂SO₄, and the absorbance was read at 450 nm. Data were analyzed using Graphpad Prism software and IC₅₀ values were reported.

Assay [4] concerns the target T2, cynomolgus monkey PD-1-his protein (Acro biosystems, #PD-1-05223) (cynomolgus monkey, UniProt B0LAJ3 25-170).
T2 construct: Bought protein; also called Cynomolgus PD-1; Cynomolgus PD1
Nature of the assay: SPR (Biacore), antibody captured, cynomolgus PD-1-his flowed. The text has this:
(§3) Briefly, goat anti-mouse IgG (GE healthcare, Cat #BR100839, Human Antibody Capture Kit) was covalently linked to a CMS chip (carboxy methyl dextran coated chip) via primary amines, using a standard amine coupling kit (GE healthcare, Pittsburgh, Pa., USA) provided by Biacore. Un-reacted moieties on the biosensor surface were blocked with ethanolamine. […] Then, recombinant human PD-1-his (Sino biological, #10377-H08H) or cynomolgus monkey PD-1-his protein (Acro biosystems, #PD-1-05223) in HBS EP buffer (provided by Biacore) was flowed onto the chip at a flow rate of 30 μL/min. The antigen-antibody association kinetics was followed for 2 minutes and the dissociation kinetics was followed for 10 minutes. The association and dissociation curves were fit to a 1:1 Langmuir binding model using BIA evaluation software.

The target in assay [5] is T1, biotin-labeled human PD-1 Fc protein. Nature of the assay: capture ELISA, antibody captured on plate, biotin-labeled human PD-1 Fc in solution. As to the method:
as §1
This is another data set of the same source.

Assay [6] deals with T3, human PD-1 on PD-1 Effector Cell Line (Genscript, GS-J2/PD-1) (human, UniProt Q15116 25-288). The assay can be described thus: cell-based or functional assay.
In assay [7] the target is T1, biotin-labeled human PD-1 Fc protein. The assay can be described thus: competition ELISA, antibody + biotin human PD-1-Fc on coated human PD-L1-Fc (competitor PD-L1-Fc). Here is the method:
(§4) The next day, plates were washed with wash buffer (PBS+0.05% Tween-20, PBST), and blocked with 5% non-fatty milk in PBST for 2 hours at 37° C. Plates were then washed again using wash buffer.
(§5) After incubation at 37° C. for 40 minutes, plates were washed for 4 times using wash buffer. […] Plates were washed again using wash buffer. Finally, TMB was added and the reaction was stopped using 1M H₂SO₄, and the absorbance was read at 450 nm. Data were analyzed using Graphpad Prism software and IC₅₀ values were reported.

Assay [8] addresses T4, recombinant human PD-1-his (Sino biological, #10377-H08H) (human, UniProt Q15116 25-167).
T4 construct: Bought protein; also called Human PD-1-his protein; not shown: his tag
Nature of the assay: SPR (Biacore), antibody captured, human PD-1-his flowed.
Text: as §3

In assay [9] the target is T1, biotin-labeled human PD-1 Fc protein. Nature of the assay: capture ELISA, antibody captured on plate, biotin-labeled human PD-1 Fc in solution. Here is the method: as §1
The source holds these as a separate data set.

The target is the same in assay [10]. Described as above. As to the method:
as §1
This is another data set of the same source.

Assay [11] has the same target. The assay is described as above. Here is the method: as §1
This is another data set of the same source.

The target is the same in assay [12]. The assay can be described thus: competition ELISA, antibody + biotin human PD-1-Fc on coated human PD-L1-Fc (competitor PD-L1-Fc). Here is the method: as §4, §5
This is another data set of the same source.

Assay [13] shares this target. Nature of the assay: capture ELISA, antibody captured on plate, biotin-labeled human PD-1 Fc in solution. Here is the method:
as §1
This is another data set of the same source.

In assay [14] the target is T3, human PD-1 on PD-1 Effector Cell Line …. Nature of the assay: cell-based or functional assay. The source holds these as a separate data set.
Assay [15] deals with T1, biotin-labeled human PD-1 Fc protein. The assay can be described thus: competition ELISA, antibody + biotin human PD-1 Fc on coated Nivolumab (competitor Nivolumab). As to the method: as §2
This is another data set of the same source.

Assay [16] has the same target. Nature of the assay: capture ELISA, antibody captured on plate, biotin-labeled human PD-1 Fc in solution. As to the method:
as §1
This is another data set of the same source.

The target is the same in assay [17]. Nature of the assay: competition ELISA, antibody + biotin human PD-1 Fc on coated Nivolumab (competitor Nivolumab). Here is the method:
as §2
The source holds these as a separate data set.

B1: huD2A4-V3 (antibody, human IgG1, kappa)
heavy: not shown
light: DIQMTQSPSSVSASVGDRVTITCLASQTIGTWLAWYQQKPGKSPKLLIYAATSLADGVPSRFSGSGSGTDFTLTISSLQPEDFATYYCQQVSSIPWTFGGGTKVEIKRTVAAPSVFIFPPSDEQLKSGTASVVCLLNNFYPREAKVQWKVDNALQSGNSQESVTEQDSKDSTYSLSSTLTLSKADYEKHKVYACEVTHQGLSSPVTKSFNRGEC
notes: Humanized D2A4, human IgG1/kappa
For the molecule B1, the EC50 in [1] amounted to 0.55 ng/mL.

B2: huD2A4-V5 (antibody, human IgG1, kappa)
heavy: not shown
light: B1 light
notes: as for B1
Take B2: in assay [2], a half-maximal effect (EC50) was put at 0.773 ng/mL.

B3: huD2A4-V4 (antibody, human IgG1, kappa, V domains shown)
VH: EVQLVESGGGLVQPGGSLRLSCAASGFTFSSYTMSWVRQAPGKGLEWVATISGGGSNTYYPDSVKGRFTISRDNSKNTLYLQMNSLRAEDTAVYYCARQAFYSNYWYFDVWGAGTTVTVSS
VL: DIQMTQSPSSVSASVGDRVTITCLASQTIGTWLAWYQQKPGKAPKLLIYAATSLADGVPSRFSGSGSGTDFTLTISSLQPEDFATYYCQQVSSIPWTFGGGTKVEIKR
notes: as for B1
B3 had a concentration giving a half-maximal response (EC50) in assay [1] of 0.349 ng/mL.

B4: huD2A4-V6 (antibody, human IgG1, kappa, V domains shown)
VH: B3 VH with A49S, A113K
VL: B3 VL
notes: as for B1
Take B4: the results for the IC50 in assay [3] and in assay [7] were 490 pM and 1690 pM, respectively. Also, the Kd in [4] was determined as 6430 pM; in assay [8], 3060 pM. The EC50 amounted to 270 pM in assay [5] and 0.999 ng/mL in assay [2]. For the same molecule, the “Cell-based functional assay (EC50, nM)” value in assay [6] was 7.6 nM.

B5: chimeric D2H3 antibody (antibody, human IgG1, kappa, V domains shown)
VH: EVQLQQSGTVLARPGASVKMSCKSSGYTFTNYWMHWVKQRPGQGLEWIGAIFPRNSETNYNQKFKAKAKLTAVTSASTAYMEVSSLTSEDSAVYFCTRNRYGLDYWGQGTSVTVSS
VL: DIVLTQSPGFLAVSLGQRATISCRASESVSLHGTRLMHWYHQKPGQPPKLLISLGSNLESGVPARFSGSGSETDFTLNIHPVEEEDAATYFCQQSIEDPWTFGGGTKLEIKR
notes: Mouse variable domains cloned in frame to human IgG1 and kappa constant regions; also called chD2H3
On to B5, for which the IC50 was 190 pM in [3], 740 pM in [12], 740 pM in assay [7] and 190 pM in assay [15]. Also, the Kd worked out at 1780 pM in assay [4] and 441 pM in assay [8]. Moreover, the EC50 is 170 pM in assay [5]; 1.51 ng/mL in assay [9]; 1.04 ng/mL in assay [10]; 170 pM in assay [11]; 0.31 ng/mL in [13]. The “Cell-based functional assay (EC50, nM)” value in [6] amounted to 5.36 nM. The “Cell-based functional reporter assay (IC50, nM)” value in assay [14] amounted to 5.36 nM.

B6: chimeric D2A4 antibody (antibody, human IgG1, kappa, V domains shown)
VH: EVKLVESGGGLVKPGGSLKLSCAASGFTFSSYTMSWVRQTPAKRLEWVATISGGGSNTYYPDSVKGRFTISRDNARNTLYLQMSSLRSEDTAMYYCARQAFYSNYWYFDVWGAGTTVTVSS
VL: DIQMTQSPASQSASLGESVTITCLASQTIGTWLAWYQQTPGKSPQLLIYAATSLADGVPSRFSGSGSGTKFSFKISSLQAEDFASYYCQQVSSIPWTFGGGTKLEIRR
notes: Mouse variable domains cloned in frame to human IgG1 and kappa constant regions; also called chD2A4; ChD2A4
Regarding B6, the EC50 is 0.681 ng/mL in assay [1], 240 pM in assay [5], 0.773 ng/mL in assay [2] and 240 pM in [11]. Further, the IC50 in [3] is 350 pM; in [12] it was 1710 pM; in assay [7] it was 1710 pM; in assay [15], 350 pM. Besides, in assay [6], the “Cell-based functional assay (EC50, nM)” value stood at 9.46 nM. In addition, the “Cell-based functional reporter assay (IC50, nM)” value in assay [14] is 9.46 nM.

B7: huD2H3-V12 (antibody, human IgG1, kappa, V domains shown)
VH: EVQLVQSGAEVKKPGSSVKVSCKASGYTFTNYWMHWVRQAPGQGLEWMGAIFPRNSETNYNQKFKARVTITADESTSTAYMELSSLRSEDTAVYYCTRNRYGLDYWGQGTLVTVSS
VL: DIVLTQSPDSLAVSLGERATINCRASESVSLHGTRLMHWYQQKPGQPPKLLISLGSNLESGVPDRFSGSGSETDFTLTISSLQAEDVAVYFCQQSIEDPWTFGQGTKLEIKR
notes: Humanized D2H3, human IgG1/kappa; also called huPD1-D2H3-V12
With B7, in assay [13], the EC50 is 0.354 ng/mL.

B8: huD2H3-V14 (antibody, human IgG1, kappa, V domains shown)
VH: B7 VH
VL: B7 VL with L4M, S53Y, E72G, F91Y
notes: Humanized D2H3, human IgG1/kappa
Take B8: the IC50 in assay [3] was 180 pM; in [7] it was 680 pM. For the same molecule, the values for the Kd in assay [4] and in assay [8] were 1500 pM and 308 pM, respectively. Moreover, the EC50 in assay [5] was 170 pM; in [13], 0.531 ng/mL. Further, the “Cell-based functional assay (EC50, nM)” value in [6] is 7.11 nM.

B9: Nivolumab (OPDIVO®) (antibody, V domains shown)
VH: QVQLVESGGGVVQPGRSLRLDCKASGITFSNSGMHWVRQAPGKGLEWVAVIWYDGSKRYYADSVKGRFTISRDNSKNTLFLQMNSLRAEDTAVYYCATNDDYWGQGTLVTVSS
VL: EIVLTQSPATLSLSPGERATLSCRASQSVSSYLAWYQQKPGQAPRLLIYDASNRATGIPARFSGSGSGTDFTLTISSLEPEDFAVYYCQQSSNWPRTFGQGTKVEIK
Regarding B9, the EC50 in [1] was 0.351 ng/mL; in assay [5], 450 pM; in assay [9], 0.365 ng/mL; in [2], 0.268 ng/mL; in assay [16], 210 pM; in [10] it was 0.27 ng/mL. The EC50 in assay [13] came to 1.37 ng/mL. Also, the IC50 is 3790 pM in assay [17] and 420 pM in assay [7].
